Measured values from PMC6614843, “Stability and sub-cellular localization of DNA polymerase β is regulated by interactions with NQO1 and XRCC1 in response to oxidative stress” (Nucleic Acids Research, 2019).

Tests used:
[1] = biological target: Polβ(WT), purified recombinant (human, UniProt P06746 1-335); test: SPR; OpenSPR localized SPR (Nicoya); Polβ(WT) or Polβ(T304I) covalently coupled (EDC/NHS) to a carboxyl sensor; XRCC1 injected at 10, 100 nM, 1, 2, 5 and 10 μM; 25 mM HEPES pH 8.0, 150 mM NaCl, 200 mM MgCl2, 0.1% Tween 20, 1 mM TCEP; KD from response versus concentration (affinity model); settings: both partners purified
[2] = biological target: Polβ(T304I), purified recombinant (human, UniProt P06746 1-335, T304I); test: as above; settings: both partners purified

- binding result [1]: binds
- mean fold decrease of binding affinity (KD) against Polβ(WT) [2]: 6.18 fold
B1: NTD-XRCC1(1-151)-His (domain or fragment)
chain: MPEIRLRHVVSCSSQDSTHCAENLLKADTYRKWRAAKAGEKTISVVLQLEKEEQIHSVDIGNDGSAFVEVLVGSSAGGAGEQDYEVLLVTSSFMSPSESRSGSNPNRVRMFGPDKLVRAAAEKRWDRVKIVCSQPYSKDSPFGLSFVRFHS
notes: N-terminal domain of XRCC1, residues 1-151; human by the plasmid's name (hXRCC1); The name puts the His tag after the fragment; also called N-terminal fragment of XRCC1
